Experimental data taken from PMC10298926, “Biophysical Characterization of the Binding Mechanism between the MATH Domain of SPOP and Its Physiological Partners” (International Journal of Molecular Sciences, 2023).
Where no end group is shown, it is not given here. The star is where a group is joined. Dansyl = CN(C)c1cccc2c(S(=O)(=O)*)cccc12

Assays:
[1] = target: engineered MATH domain of SPOP (Speckle-type POZ protein), residues 1-182, cysteine residues substituted to serine (UniProt O43791); test: stopped-flow fluorescence binding kinetics + other: stopped-flow fluorescence displacement; KD calculated by combining kon of the pseudo-first-order plots with koff of the displacement experiments; 298 K
[2] = target: engineered MATH domain of SPOP (Speckle-type POZ protein), residues 1-182, cysteine residues substituted to serine (UniProt O43791); test: stopped-flow fluorescence binding kinetics; pseudo-first-order; 2 µM MATH mixed with dansylated peptide, 2 to 10 µM Puc and MacroH2A, 2 to 40 µM PTEN; excitation 280 nm; 298 K; kobs against peptide concentration fitted to a line, kon from the slope
[3] = target: engineered MATH domain of SPOP (Speckle-type POZ protein), residues 1-182, cysteine residues substituted to serine (UniProt O43791); test: stopped-flow fluorescence displacement; preincubated complex of MATH domain and dansylated peptide (both 8 µM) mixed with an excess of nondansylated peptide (50 µM); 298 K; same buffer as the binding experiments; single exponential decay gives koff
[4] = substrate: SPOP MATH D131A (UniProt O43791); test: stopped-flow fluorescence binding kinetics; pseudo-first-order; 2 µM MATH mixed with dansylated peptide, 2 to 10 µM Puc and MacroH2A, 2 to 40 µM PTEN; excitation 280 nm; 298 K; kobs against peptide concentration fitted to a line, kon from the slope
[5] = substrate: SPOP MATH F134A (UniProt O43791); test: as above
[6] = substrate: SPOP MATH K130A (UniProt O43791); test: as above
[7] = substrate: SPOP MATH K135A (UniProt O43791); test: as above
[8] = substrate: SPOP MATH R71A (UniProt O43791); test: as above
[9] = substrate: SPOP MATH Y124A (UniProt O43791); test: as above
[10] = substrate: SPOP MATH Y88A (UniProt O43791); test: as above
[11] = substrate: SPOP MATH D131A (UniProt O43791); test: stopped-flow fluorescence displacement; preincubated complex of MATH domain and dansylated peptide (both 8 µM) mixed with an excess of nondansylated peptide (50 µM); 298 K; same buffer as the binding experiments; single exponential decay gives koff
[12] = substrate: SPOP MATH F134A (UniProt O43791); test: as above
[13] = substrate: SPOP MATH K130A (UniProt O43791); test: as above
[14] = substrate: SPOP MATH K135A (UniProt O43791); test: as above
[15] = substrate: SPOP MATH R71A (UniProt O43791); test: as above
[16] = substrate: SPOP MATH Y124A (UniProt O43791); test: as above
[17] = substrate: SPOP MATH Y88A (UniProt O43791); test: as above
[18] = target: engineered MATH domain of SPOP (Speckle-type POZ protein), residues 1-182, cysteine residues substituted to serine (UniProt O43791); test: other fluorescence titration; equilibrium; FRET from the tryptophans of SPOP MATH (excited at 280 nm, emission 300-400 nm) to the dansyl of the peptide; MATH at constant concentration (2 µM in the methods, 1 µM in the results), dansylated peptide 0 to 40 µM; 298 K; hyperbolic fit

Kd [1]: 1400 nM
kon [2]: 1.9e+07 M⁻¹ s⁻¹
koff [3]: 26.1 s⁻¹
kon [4]: 1.82e+07 M⁻¹ s⁻¹
kon [5]: 9.4e+06 M⁻¹ s⁻¹
kon [6]: 1.3e+07 M⁻¹ s⁻¹
kon [7]: 6.3e+06 M⁻¹ s⁻¹
kon [8]: 8.8e+06 M⁻¹ s⁻¹
kon [9]: 6.71e+06 M⁻¹ s⁻¹
kon [10]: 1.44e+07 M⁻¹ s⁻¹
koff [11]: 241 s⁻¹
koff [12]: 15 s⁻¹
koff [13]: 123 s⁻¹
koff [14]: 45.2 s⁻¹
koff [15]: 34 s⁻¹
koff [16]: 78 s⁻¹
koff [17]: 302 s⁻¹
Kd [18]: 1400 nM
Binder: Dansyl-DEVTSTTSSS [dansylated peptide mimicking Puc (region 96-105)]
